Reference: US9957297B2, “Template-fixed peptidomimetics as inhibitors of FPR1” (POLYPHOR AG, priority 2011, dated 2018)
*1 amine or outer side, *2 acyl side, *3 side chain or, on linkers, in order; H or OH if unused. Where a SMILES comes first, the peptide text is derived from it. Bridges are numbered along the chain shown (N, C = ends). [ ]: non-standard residue; d: D form. Pro(trans-4-NH2) = O=C([C@@H]1C[C@@H](N[*:3])CN1[*:1])[*:2]; Trp(5-OH) = N[C@@H](Cc1c[nH]c2ccc(O)cc12)C(=O)O; Oic = O=C(O)[C@@H]1C[C@@H]2CCCC[C@@H]2N1; Pro(4S-NH2) = N[C@@H]1CN[C@H](C(=O)O)C1; Pro(4R-NH2) = N[C@H]1CN[C@H](C(=O)O)C1; d(cisHyp) = O=C(O)[C@H]1C[C@@H](O)CN1; Hyp = O=C(O)[C@@H]1C[C@@H](O)CN1; Tic = O=C(O)[C@@H]1Cc2ccccc2CN1; Pip = O=C(O)[C@@H]1CCCCN1; Dab = NCC[C@H](N)C(=O)O

B1: cyclo(-Tyr-His-Lys-Cys-His-Gly-^DPro-Trp-Thr-Ile-Cys-Tyr-Glu-Lys-^DPro-Pro((4R)NH2)-) (peptide)
peptide: cyclo(YHKCHG[dP]WTICYEK[dP][Pro(trans-4-NH2)])
modifications: disulfide 4-11
SMILES: CC[C@H](C)[C@@H]1NC(=O)[C@H]([C@@H](C)O)NC(=O)[C@H](Cc2c[nH]c3ccccc23)NC(=O)[C@H]2CCCN2C(=O)CNC(=O)[C@H](Cc2c[nH]cn2)NC(=O)[C@@H]2CSSC[C@H](NC1=O)C(=O)N[C@@H](Cc1ccc(O)cc1)C(=O)N[C@@H](CCC(=O)O)C(=O)N[C@@H](CCCCN)C(=O)N1CCC[C@@H]1C(=O)N1C[C@H](N)C[C@H]1C(=O)N[C@@H](Cc1ccc(O)cc1)C(=O)N[C@@H](Cc1c[nH]cn1)C(=O)N[C@@H](CCCCN)C(=O)N2
B2: cyclo(-Tyr-His-Lys-Cys-His-Gly-^DPro-Trp-Thr-Ile-Cys-Tyr-Glu-Lys-^DPro-Dab-) (peptide)
peptide: cyclo(YHKCHG[dP]WTICYEK[dP][Dab])
modifications: disulfide 4-11
SMILES: CC[C@H](C)[C@@H]1NC(=O)[C@H]([C@@H](C)O)NC(=O)[C@H](Cc2c[nH]c3ccccc23)NC(=O)[C@H]2CCCN2C(=O)CNC(=O)[C@H](Cc2c[nH]cn2)NC(=O)[C@@H]2CSSC[C@H](NC1=O)C(=O)N[C@@H](Cc1ccc(O)cc1)C(=O)N[C@@H](CCC(=O)O)C(=O)N[C@@H](CCCCN)C(=O)N1CCC[C@@H]1C(=O)N[C@@H](CCN)C(=O)N[C@@H](Cc1ccc(O)cc1)C(=O)N[C@@H](Cc1c[nH]cn1)C(=O)N[C@@H](CCCCN)C(=O)N2
B3: cyclo(-Tyr-His-Lys-Cys-His-Gly-^DPro-Trp-Thr-Ile-Cys-Tyr-Glu-Lys-^DPro-Lys-) (peptide)
peptide: cyclo(YHKCHG[dP]WTICYEK[dP]K)
modifications: disulfide 4-11
SMILES: CC[C@H](C)[C@@H]1NC(=O)[C@H]([C@@H](C)O)NC(=O)[C@H](Cc2c[nH]c3ccccc23)NC(=O)[C@H]2CCCN2C(=O)CNC(=O)[C@H](Cc2c[nH]cn2)NC(=O)[C@@H]2CSSC[C@H](NC1=O)C(=O)N[C@@H](Cc1ccc(O)cc1)C(=O)N[C@@H](CCC(=O)O)C(=O)N[C@@H](CCCCN)C(=O)N1CCC[C@@H]1C(=O)N[C@@H](CCCCN)C(=O)N[C@@H](Cc1ccc(O)cc1)C(=O)N[C@@H](Cc1c[nH]cn1)C(=O)N[C@@H](CCCCN)C(=O)N2
B4: cyclo(-Tyr-His-Ala-Cys-Trp-Gly-^DPro-Trp-Thr-Ile-Cys-Tyr-Gln-Lys-^DPro-Ala-) (peptide)
peptide: cyclo(YHACWG[dP]WTICYQK[dP]A)
modifications: disulfide 4-11
SMILES: CC[C@H](C)[C@@H]1NC(=O)[C@H]([C@@H](C)O)NC(=O)[C@H](Cc2c[nH]c3ccccc23)NC(=O)[C@H]2CCCN2C(=O)CNC(=O)[C@H](Cc2c[nH]c3ccccc23)NC(=O)[C@@H]2CSSC[C@H](NC1=O)C(=O)N[C@@H](Cc1ccc(O)cc1)C(=O)N[C@@H](CCC(N)=O)C(=O)N[C@@H](CCCCN)C(=O)N1CCC[C@@H]1C(=O)N[C@@H](C)C(=O)N[C@@H](Cc1ccc(O)cc1)C(=O)N[C@@H](Cc1c[nH]cn1)C(=O)N[C@@H](C)C(=O)N2
B5: cyclo(-Tyr-His-Ala-Cys-His-Gly-^DPro-Trp-Thr-Ile-Cys-Tyr-Gln-Lys-^DPro-Trp-) (peptide)
peptide: cyclo(YHACHG[dP]WTICYQK[dP]W)
modifications: disulfide 4-11
SMILES: CC[C@H](C)[C@@H]1NC(=O)[C@H]([C@@H](C)O)NC(=O)[C@H](Cc2c[nH]c3ccccc23)NC(=O)[C@H]2CCCN2C(=O)CNC(=O)[C@H](Cc2c[nH]cn2)NC(=O)[C@@H]2CSSC[C@H](NC1=O)C(=O)N[C@@H](Cc1ccc(O)cc1)C(=O)N[C@@H](CCC(N)=O)C(=O)N[C@@H](CCCCN)C(=O)N1CCC[C@@H]1C(=O)N[C@@H](Cc1c[nH]c3ccccc13)C(=O)N[C@@H](Cc1ccc(O)cc1)C(=O)N[C@@H](Cc1c[nH]cn1)C(=O)N[C@@H](C)C(=O)N2
B6: cyclo(-Tyr-His-Lys-Cys-Trp-Gly-^DPro-Trp-Thr-Ile-Cys-Tyr-Glu-Lys-^DPro-Lys-) (peptide)
peptide: cyclo(YHKCWG[dP]WTICYEK[dP]K)
modifications: disulfide 4-11
SMILES: CC[C@H](C)[C@@H]1NC(=O)[C@H]([C@@H](C)O)NC(=O)[C@H](Cc2c[nH]c3ccccc23)NC(=O)[C@H]2CCCN2C(=O)CNC(=O)[C@H](Cc2c[nH]c3ccccc23)NC(=O)[C@@H]2CSSC[C@H](NC1=O)C(=O)N[C@@H](Cc1ccc(O)cc1)C(=O)N[C@@H](CCC(=O)O)C(=O)N[C@@H](CCCCN)C(=O)N1CCC[C@@H]1C(=O)N[C@@H](CCCCN)C(=O)N[C@@H](Cc1ccc(O)cc1)C(=O)N[C@@H](Cc1c[nH]cn1)C(=O)N[C@@H](CCCCN)C(=O)N2

How the values were obtained:
FPR1 = biological target: T1, FPR1 (Homo sapiens, UniProt P21462); experiment: FPR1 β-arrestin recruitment assay (PathHunter CHO-FPR1, antagonistic mode); assay type: cell-based; settings: CHO FPR1 β-arrestin cells; antagonistic assay vs reference agonist fMLF at its EC80; 60 min preincubation
T1 construct: host or cells: CHO (PathHunter CHO-FPR1 β-arrestin cells)
T1 sequence (P21462 1-350): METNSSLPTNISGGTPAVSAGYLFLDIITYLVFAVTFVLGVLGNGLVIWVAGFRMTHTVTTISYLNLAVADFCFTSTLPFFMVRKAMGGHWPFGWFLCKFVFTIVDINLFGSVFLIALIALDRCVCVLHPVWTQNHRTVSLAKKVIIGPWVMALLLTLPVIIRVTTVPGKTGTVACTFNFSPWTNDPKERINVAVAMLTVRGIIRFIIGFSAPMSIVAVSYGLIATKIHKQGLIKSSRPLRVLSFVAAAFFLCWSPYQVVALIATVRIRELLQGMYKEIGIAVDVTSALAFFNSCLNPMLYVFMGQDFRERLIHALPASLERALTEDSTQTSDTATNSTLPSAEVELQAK
Description: 2.2 FPR1 β-Arrestin Recruitment Assay
The PathHunter CHO—FPR1 (DiscoverX) assay was performed according to the manufacturer's protocol. In brief, CHO FPR1 β-arrestin cells were seeded at a density of 9000 cells per well in 20 μl of Ham's F12 medium (Invitrogen) in black 384-well culture plates and incubated overnight at 37° C. in a humidified atmosphere with 5% CO2. The next day, serial dilutions of the β-hairpin peptidomimetics of this invention have been prepared in DMSO and subsequently diluted in HBSS buffer supplemented with 20 mM Hepes and 0.1% BSA.
For antagonistic assay, 5 μl of compound solution or buffer was added to the cells with a final DMSO concentration of 0.5% (v/v). The plate was incubated for 60 min at 37° C. with 5% CO2 before addition of […] of the reference agonist fMLF peptide (Sigma-Aldrich) at its EC80 concentration. After 90 min of incubation at 37° C. with 5% CO2, 15 μl of beta-Glo detection reagent (Promega) were added. Reaction was developed for 20 min at room temperature and chemiluminescence was measured with a Victor2V (Perkin Elmer) luminescence reader.

[1] = biological target: T2, Formyl-Peptide Receptor 1 (UniProt P21462 1-350, limits assumed); experiment: cell-based or functional assay
T2 sequence (looked up): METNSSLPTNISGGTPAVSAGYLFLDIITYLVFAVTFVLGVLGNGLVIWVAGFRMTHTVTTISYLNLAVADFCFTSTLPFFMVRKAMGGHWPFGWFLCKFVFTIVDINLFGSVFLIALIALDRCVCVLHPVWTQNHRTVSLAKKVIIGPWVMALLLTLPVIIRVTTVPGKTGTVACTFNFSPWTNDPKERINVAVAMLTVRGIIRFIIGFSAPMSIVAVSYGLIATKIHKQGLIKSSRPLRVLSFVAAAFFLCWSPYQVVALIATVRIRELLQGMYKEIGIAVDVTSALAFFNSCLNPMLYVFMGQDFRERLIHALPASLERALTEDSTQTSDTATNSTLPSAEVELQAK

Row | Molecule | IC50 (FPR1) [nM] | β-Arrestin IC50 [1] [nM]
1 | CC[C@H](C)[C@@H]1NC(=O)[C@H]([C@@H](C)O)NC(=O)[C@H](Cc2c[nH]c3ccccc23)NC(=O)[C@H]2CCCN2C(=O)CNC(=O)[C@H](Cc2c[nH]c3ccccc23)NC(=O)[C@@H]2CSSC[C@H](NC1=O)C(=O)N[C@@H](Cc1ccc(O)cc1)C(=O)N[C@@H](CCC(=O)O)C(=O)N[C@@H](CCCCN)C(=O)N1CCC[C@@H]1C(=O)N[C@@H](CCCCN)C(=O)N[C@@H](Cc1ccc(O)cc1)C(=O)N[C@@H](Cc1c[nH]cn1)C(=O)N[C@@H](CCCCN)C(=O)N2 [compound 87, cyclo(-Tyr-His-Lys-Cys-Trp-Gly-^DPro-Trp-Thr-Ile-Cys-Tyr-Glu-Lys-^DPro-Lys-)] (cyclo(YHKCWG[dP]WTICYEK[dP]K); disulfide 4-11) | 54 ± 21 | 
2 | CC[C@H](C)[C@@H]1NC(=O)[C@H]([C@@H](C)O)NC(=O)[C@H](Cc2c[nH]c3ccccc23)NC(=O)[C@H]2CCCN2C(=O)CNC(=O)[C@H](Cc2c[nH]cn2)NC(=O)[C@@H]2CSSC[C@H](NC1=O)C(=O)N[C@@H](Cc1ccc(O)cc1)C(=O)N[C@@H](CCC(=O)O)C(=O)N[C@@H](CCCCN)C(=O)N1CCC[C@@H]1C(=O)N1C[C@H](N)C[C@H]1C(=O)N[C@@H](Cc1ccc(O)cc1)C(=O)N[C@@H](Cc1c[nH]cn1)C(=O)N[C@@H](CCCCN)C(=O)N2 [compound 83, cyclo(-Tyr-His-Lys-Cys-His-Gly-^DPro-Trp-Thr-IIe-Cys-Tyr-Glu-Lys-^DPro-Pro((4R)NH2)-)] (cyclo(YHKCHG[dP]WTICYEK[dP][Pro(4R-NH2)]); disulfide 4-11) | 82 ± 51 | 
3 | CC[C@H](C)[C@@H]1NC(=O)[C@H]([C@@H](C)O)NC(=O)[C@H](Cc2c[nH]c3ccccc23)NC(=O)[C@H]2CCCN2C(=O)CNC(=O)[C@H](Cc2c[nH]cn2)NC(=O)[C@@H]2CSSC[C@H](NC1=O)C(=O)N[C@@H](Cc1ccc(O)cc1)C(=O)N[C@@H](CCC(=O)O)C(=O)N[C@@H](CCCCN)C(=O)N1CCC[C@@H]1C(=O)N1CCC[C@H]1C(=O)N[C@@H](Cc1ccc(O)cc1)C(=O)N[C@@H](Cc1c[nH]cn1)C(=O)N[C@@H](C)C(=O)N2 [compound 30, cyclo(-Tyr-His-Ala-Cys-His-Gly-^DPro-Trp-Thr-Ile-Cys-Tyr-Glu-Lys-^DPro-Pro-)] (cyclo(YHACHG[dP]WTICYEK[dP]P); disulfide 4-11) | 189 ± 79 | 
4 | B1 |  | 82
5 | cyclo(YH[Dab]CHG[dP]WTICYEK[dP]P) (disulfide 4-11) [cyclo(-Tyr-His-Dab-Cys-His-Gly-^DPro-Trp-Thr-Ile-Cys-Tyr-Glu-Lys-^DPro-Pro-)] |  | 290
6 | B2 |  | 189
7 | cyclo(YHKCHG[dP]WTICYEK[dP][Hyp]) (disulfide 4-11) [cyclo(-Tyr-His-Lys-Cys-His-Gly-^DPro-Trp-Thr-Ile-Cys-Tyr-Glu-Lys-^DPro-Pro((4R)OH)-)] |  | 376
8 | cyclo(YHKCHG[dP]WTICYEK[dP][Tic]) (disulfide 4-11) [cyclo(-Tyr-His-Lys-Cys-His-Gly-^DPro-Trp-Thr-Ile-Cys-Tyr-Glu-Lys-^DPro-Tic-)] |  | 115
9 | cyclo(YHKCHG[dP]WTICYEK[dP][Oic]) (disulfide 4-11) [cyclo(-Tyr-His-Lys-Cys-His-Gly-^DPro-Trp-Thr-Ile-Cys-Tyr-Glu-Lys-^DPro-Oic-)] |  | 267
10 | cyclo(YHKCHG[dP]WTICYEK[dP][Pro(4S-NH2)]) (disulfide 4-11) [cyclo(-Tyr-His-Lys-Cys-His-Gly-^DPro-Trp-Thr-Ile-Cys-Tyr-Glu-Lys-^DPro-Pro((4S)NH2)-)] |  | 530
11 | B3 |  | 109
12 | cyclo(YHKC[Trp(5-OH)]G[dP]WTICYEK[dP]P) (disulfide 4-11) [cyclo(-Tyr-His-Lys-Cys-Trp(5OH)-Gly-^DPro-Trp-Thr-Ile-Cys-Tyr-Glu-Lys-^DPro-Pro-)] |  | 13
13 | cyclo(YHKCHG[dP]WTICYEK[dP][Pip]) (disulfide 4-11) [cyclo(-Tyr-His-Lys-Cys-His-Gly-^DPro-Trp-Thr-Ile-Cys-Tyr-Glu-Lys-^DPro-Pip-)] |  | 161
14 | B4 |  | 188
15 | cyclo(YHKCHG[d(cisHyp)]WTICYEK[dP]P) (disulfide 4-11) [cyclo(-Tyr-His-Lys-Cys-His-Gly-^DPro((4R)OH)-Trp-Thr-Ile-Cys-Tyr-Glu-Lys-^DPro-Pro-)] |  | 485
16 | B5 |  | 147
17 | B6 |  | 54
